Biological target: S. Typhi PltB (pertussis-like toxin B subunit) homopentamer (Salmonella enterica serovar Typhi) (UniProt Q8Z6A3)
Assay: […], sodium acetate pH 4.4) […]

“S. Typhi PltB (pertussis-like toxin B subunit) homopentamer (from UniProt Q8Z6A3) (natural protein)” showed a stoichiometry N of 5.
